The values below come from publication PMC10836720.

This assay addresses A. baumannii 118362 Family 2A encapsulin shell protein (J517_0527) (Acinetobacter baumannii 118362). Description: cryo-EM structure.

As for “A. baumannii 118362 Family 2A encapsulin shell protein (J517_0527) (natural protein)”, the stoichiometry N was determined as 60 subunits.

In general, stoichiometry N refers to the number of molecules, sites or subunits per partner or assembly.
